Ends that are not written are not given here.
B1: Ab0370 (antibody, IgG4, V domains shown)
VH: QVTLKESGPVLVKPTETLTLTCTVSGFSLNNARVGVSWIRQPPGKALEWLAWIFSNDEKSYSTSLKSRLTISKDTSKSQVVLTMTNMDPVDTATYYCARSVVTGGYYYEGMDVWGQGTTVTVSS
VL: SYVLTQPPSVSVAPGQTARITCGGNNIGSESVHWYQQKPGQAPVLVVDDSDRPSGIPERFSGSNSGNTATLTISRVEAGDEADYYCQVHDGNSDHVVFGGGTKLTVLG

Assays:
Assay in all cases: cell-based or functional assay
[1] = target: human GLP-1 receptor (human) (UniProt P43220)
[2] = target: human GIP receptor (human) (UniProt P48546)
Chain of human GIP receptor (human) (P48546 22-466): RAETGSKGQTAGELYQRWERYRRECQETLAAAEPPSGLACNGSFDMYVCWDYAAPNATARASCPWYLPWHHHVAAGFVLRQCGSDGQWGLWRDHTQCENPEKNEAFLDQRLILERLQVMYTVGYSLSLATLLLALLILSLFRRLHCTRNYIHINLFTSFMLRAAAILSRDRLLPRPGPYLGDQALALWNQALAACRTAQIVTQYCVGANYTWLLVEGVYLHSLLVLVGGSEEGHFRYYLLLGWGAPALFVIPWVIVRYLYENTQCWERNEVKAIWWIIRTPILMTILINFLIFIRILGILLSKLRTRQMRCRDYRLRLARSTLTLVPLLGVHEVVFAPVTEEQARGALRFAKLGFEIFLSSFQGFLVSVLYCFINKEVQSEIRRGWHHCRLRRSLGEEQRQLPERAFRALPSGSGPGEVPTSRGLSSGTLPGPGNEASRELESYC

[3] = target: human glucagon receptor (human) (UniProt P47871)
Chain of human glucagon receptor (human) (P47871 26-477): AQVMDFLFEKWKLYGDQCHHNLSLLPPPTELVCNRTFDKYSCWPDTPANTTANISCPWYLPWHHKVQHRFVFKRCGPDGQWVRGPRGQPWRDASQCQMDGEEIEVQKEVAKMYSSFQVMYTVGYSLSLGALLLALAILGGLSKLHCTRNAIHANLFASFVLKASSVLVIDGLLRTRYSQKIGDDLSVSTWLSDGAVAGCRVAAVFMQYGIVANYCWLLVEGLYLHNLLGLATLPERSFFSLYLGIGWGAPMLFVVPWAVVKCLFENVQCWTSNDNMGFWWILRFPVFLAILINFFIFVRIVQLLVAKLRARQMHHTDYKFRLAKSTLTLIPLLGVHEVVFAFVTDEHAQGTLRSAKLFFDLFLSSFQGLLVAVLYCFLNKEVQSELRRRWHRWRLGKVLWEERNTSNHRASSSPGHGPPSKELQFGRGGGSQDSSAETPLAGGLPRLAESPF

[4] = target: human FGFR1c + KLB receptor complex on HEK293 iLite FGF21 reporter cells (human) (UniProt P11362)
Chain of human FGFR1c + KLB receptor complex on HEK293 iLite FGF21 reporter cells (human) (P11362 22-822, chain 1 of 2): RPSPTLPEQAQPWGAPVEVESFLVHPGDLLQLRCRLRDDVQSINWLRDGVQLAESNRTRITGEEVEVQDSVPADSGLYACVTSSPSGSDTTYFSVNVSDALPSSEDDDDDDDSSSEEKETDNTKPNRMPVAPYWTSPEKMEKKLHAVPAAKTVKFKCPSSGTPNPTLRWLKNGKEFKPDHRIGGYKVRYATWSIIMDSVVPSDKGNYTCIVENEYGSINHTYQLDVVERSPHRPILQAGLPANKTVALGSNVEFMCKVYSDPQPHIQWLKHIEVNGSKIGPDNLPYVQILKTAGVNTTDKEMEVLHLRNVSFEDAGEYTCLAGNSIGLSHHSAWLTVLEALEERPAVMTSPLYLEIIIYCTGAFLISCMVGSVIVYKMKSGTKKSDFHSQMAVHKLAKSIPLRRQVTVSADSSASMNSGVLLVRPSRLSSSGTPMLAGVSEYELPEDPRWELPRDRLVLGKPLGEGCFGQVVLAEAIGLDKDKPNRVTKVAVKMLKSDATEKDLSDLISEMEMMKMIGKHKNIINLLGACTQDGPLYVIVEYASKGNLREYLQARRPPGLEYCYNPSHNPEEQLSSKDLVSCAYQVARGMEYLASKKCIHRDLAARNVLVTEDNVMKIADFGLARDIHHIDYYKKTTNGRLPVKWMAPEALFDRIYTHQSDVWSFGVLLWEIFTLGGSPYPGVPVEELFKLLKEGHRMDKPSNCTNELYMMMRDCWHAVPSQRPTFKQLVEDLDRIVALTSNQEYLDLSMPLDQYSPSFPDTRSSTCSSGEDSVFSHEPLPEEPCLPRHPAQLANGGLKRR
Chain of human FGFR1c + KLB receptor complex on HEK293 iLite FGF21 reporter cells (human) (Q86Z14 whole entry, chain 2 of 2, further chain): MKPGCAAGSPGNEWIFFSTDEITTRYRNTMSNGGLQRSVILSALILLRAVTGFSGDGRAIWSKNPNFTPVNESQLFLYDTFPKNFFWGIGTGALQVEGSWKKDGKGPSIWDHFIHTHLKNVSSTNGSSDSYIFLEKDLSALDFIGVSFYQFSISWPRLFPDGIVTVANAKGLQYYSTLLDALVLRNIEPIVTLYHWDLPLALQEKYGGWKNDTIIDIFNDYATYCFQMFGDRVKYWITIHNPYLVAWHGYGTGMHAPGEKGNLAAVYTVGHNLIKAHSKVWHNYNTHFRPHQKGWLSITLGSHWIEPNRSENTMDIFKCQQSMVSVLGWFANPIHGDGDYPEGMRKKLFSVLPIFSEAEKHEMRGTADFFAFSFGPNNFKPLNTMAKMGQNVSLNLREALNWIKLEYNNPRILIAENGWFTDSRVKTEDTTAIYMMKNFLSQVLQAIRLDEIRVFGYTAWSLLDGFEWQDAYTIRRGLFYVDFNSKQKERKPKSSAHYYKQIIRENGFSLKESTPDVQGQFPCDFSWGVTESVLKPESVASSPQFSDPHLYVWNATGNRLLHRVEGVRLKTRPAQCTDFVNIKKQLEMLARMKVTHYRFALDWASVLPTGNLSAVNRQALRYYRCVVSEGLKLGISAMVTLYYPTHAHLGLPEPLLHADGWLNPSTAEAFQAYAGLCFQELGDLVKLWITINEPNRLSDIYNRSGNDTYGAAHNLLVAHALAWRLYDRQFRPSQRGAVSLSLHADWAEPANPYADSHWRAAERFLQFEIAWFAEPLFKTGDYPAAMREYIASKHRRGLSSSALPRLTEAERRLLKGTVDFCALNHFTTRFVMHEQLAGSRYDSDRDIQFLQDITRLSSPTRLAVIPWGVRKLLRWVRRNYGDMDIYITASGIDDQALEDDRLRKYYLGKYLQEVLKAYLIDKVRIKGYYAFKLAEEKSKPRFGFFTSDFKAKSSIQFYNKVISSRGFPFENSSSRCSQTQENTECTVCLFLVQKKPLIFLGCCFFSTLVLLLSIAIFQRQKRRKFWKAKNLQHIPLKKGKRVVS

Chain of human GLP-1 receptor (human) (P43220 24-463): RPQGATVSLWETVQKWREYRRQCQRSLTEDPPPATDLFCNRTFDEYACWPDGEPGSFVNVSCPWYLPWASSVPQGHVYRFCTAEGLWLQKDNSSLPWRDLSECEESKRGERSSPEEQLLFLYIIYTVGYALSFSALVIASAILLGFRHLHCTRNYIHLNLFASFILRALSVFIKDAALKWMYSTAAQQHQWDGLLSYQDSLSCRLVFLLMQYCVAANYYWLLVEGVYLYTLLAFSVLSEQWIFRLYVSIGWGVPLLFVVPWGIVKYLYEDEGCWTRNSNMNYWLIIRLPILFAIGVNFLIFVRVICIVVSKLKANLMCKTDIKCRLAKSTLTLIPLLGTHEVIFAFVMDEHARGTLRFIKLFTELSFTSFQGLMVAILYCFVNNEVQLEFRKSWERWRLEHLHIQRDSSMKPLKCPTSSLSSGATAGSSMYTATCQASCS

| Binder | HTRF cAMP EC50 [1] [nM] | HTRF cAMP EC50 [2] [nM] | HTRF cAMP EC50 [3] [nM] | EC50 [4] [nM] | Emax [4] [%] |
| --- | --- | --- | --- | --- | --- |
| GHGEGTFTSDLSIQLEEEAVRLFIEWLLATGPSSGAPPPS-NH2 [P020] | 0.206 | – | – | – | – |
| GHGEGTFTSDKSKQLEEEAVRLFIEWLKAGGPSSGAPPPS-NH2 [P021] | 0.0276 | > 10 | > 10 | – | – |
| GHGEGTFTSDLSIQLEEEAVRLFIEWLLAGGPSSGAPPPS-NH2 [P019] | 0.0276 | – | – | – | – |
| GHGEGTFTSDLSKQLEEEAVRLFIEWLKAGGPKKIRYS-NH2 [P013] | 0.0099 | > 10 | > 10 | – | – |
| HGEGTFTSDLSKQLEEEAVQLFIEWLLATGPSSGAPPPS-NH2 [P010] | 0.0035 | – | – | – | – |
| GHGEGTFTSDKSKQLEEEAVRLFIEWLKAGGPKKIRYS-NH2 [P014] | 0.0105 | > 10 | 5.4 | – | – |
| B1 | – | – | – | > 100 | 490 |
| HGEGTFTSDLSKQLEEERVQLFIEWLKATGPSSGAPPPS-NH2 [P008] | 0.0232 | > 10 | > 10 | – | – |
| GHGEGTFTSDLSKQLEEEAVRLFIEWLKAGGPSSGAPPPS-NH2 [P017] | 0.0085 | > 10 | > 10 | – | – |
